Target: murine monoclonal IgE antibody 2F5 (anti-profilin Hev b 8)
Assay: ELISA
Conditions: chain shown with the change; n = 4; parent: est. 0.26; read off a plot

- response: 0.4 Abs 405nm
B1: recombinant maize profilin (rZea m 12) E128D (protein)
chain: GMSWQAYVDDHLLCDIEGQHLSAAAIVGHDGSVWAQSENFPELKPEEVAGMIKDFDEPGTLAPTGLFVGGTKYMVIQGEPGVVIRGKKGTGGITIKKTGMSLIIGIYDEPMTPGQCNMVVERLGDYLIDQGF
